Results: patent CN113135995A (SHANGHAI INST OF BIOLOGICAL PRODUCTS CO LTD, dated 2021)

Tests used:
[1] = target: T1, HER3胞外区重组蛋白 (recombinant HER3 extracellular domain protein, expressed in CHO cells) (human, UniProt P21860 20-643); assay: ProteOn XPR36 SPR; antibody captured by goat anti-human IgG Fc on GLM chip, HER3 protein 0.625-10 nM as analyte
T1 construct: also called HER3蛋白

[2] = target: T1, HER3胞外区重组蛋白 (recombinant HER3 …); assay: ProteOn XPR36 SPR, ratio of KD values
[3] = target: 细胞表面HER3分子 (HER3 on the surface of human tumour cells) (human, UniProt P21860 20-1342); assay: cell-based or functional assay
Chain of 细胞表面HER3分子 (HER3 on the surface of human tumour cells) (P21860 20-1342 limits assumed): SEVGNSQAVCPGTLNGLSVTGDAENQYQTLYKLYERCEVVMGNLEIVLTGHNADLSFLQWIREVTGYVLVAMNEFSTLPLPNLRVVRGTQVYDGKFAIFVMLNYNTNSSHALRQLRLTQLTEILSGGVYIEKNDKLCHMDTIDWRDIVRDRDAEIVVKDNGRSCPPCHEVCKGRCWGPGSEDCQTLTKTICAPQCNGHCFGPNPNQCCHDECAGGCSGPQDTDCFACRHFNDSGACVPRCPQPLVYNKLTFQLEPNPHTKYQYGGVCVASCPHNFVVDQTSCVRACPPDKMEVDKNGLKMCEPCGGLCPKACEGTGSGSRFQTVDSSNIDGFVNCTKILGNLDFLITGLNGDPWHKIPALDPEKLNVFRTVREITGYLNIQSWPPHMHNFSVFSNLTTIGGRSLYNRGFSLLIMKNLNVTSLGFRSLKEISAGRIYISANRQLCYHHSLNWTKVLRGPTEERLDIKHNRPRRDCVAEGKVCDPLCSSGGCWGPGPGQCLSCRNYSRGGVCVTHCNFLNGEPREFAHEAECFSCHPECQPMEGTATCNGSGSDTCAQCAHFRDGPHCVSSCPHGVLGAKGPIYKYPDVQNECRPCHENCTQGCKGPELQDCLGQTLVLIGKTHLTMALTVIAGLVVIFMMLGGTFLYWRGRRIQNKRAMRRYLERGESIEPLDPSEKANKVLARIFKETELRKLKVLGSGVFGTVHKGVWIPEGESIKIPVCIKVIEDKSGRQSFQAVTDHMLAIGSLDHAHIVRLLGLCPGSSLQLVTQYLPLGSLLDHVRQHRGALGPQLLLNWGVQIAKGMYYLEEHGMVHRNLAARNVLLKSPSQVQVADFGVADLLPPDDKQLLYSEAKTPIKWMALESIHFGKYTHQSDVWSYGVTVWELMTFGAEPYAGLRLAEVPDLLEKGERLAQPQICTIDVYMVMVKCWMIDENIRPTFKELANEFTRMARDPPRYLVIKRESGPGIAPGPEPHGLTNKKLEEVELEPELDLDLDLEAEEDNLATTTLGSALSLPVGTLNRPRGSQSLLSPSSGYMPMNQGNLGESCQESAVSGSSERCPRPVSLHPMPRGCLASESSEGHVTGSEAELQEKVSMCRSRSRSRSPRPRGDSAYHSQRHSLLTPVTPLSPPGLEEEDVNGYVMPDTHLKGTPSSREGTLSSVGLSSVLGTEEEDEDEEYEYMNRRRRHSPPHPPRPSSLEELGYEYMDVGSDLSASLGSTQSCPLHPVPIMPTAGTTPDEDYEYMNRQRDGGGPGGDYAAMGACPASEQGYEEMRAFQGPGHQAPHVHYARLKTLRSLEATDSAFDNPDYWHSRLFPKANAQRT

[4] = target: T2, hGH标签的HER3胞外区蛋白 (hGH-tagged HER3 extracellular domain protein) (human, UniProt P21860 20-643); assay: blocking ELISA: HRG coated, hGH-tagged HER3 ECD 1 ug/ml, antibody from 2 ug/ml in 1:3 steps, HRP anti-hGH detection
T2 construct: also called HER3分子; not shown: hGH tag
T2 sequence (P21860 20-643): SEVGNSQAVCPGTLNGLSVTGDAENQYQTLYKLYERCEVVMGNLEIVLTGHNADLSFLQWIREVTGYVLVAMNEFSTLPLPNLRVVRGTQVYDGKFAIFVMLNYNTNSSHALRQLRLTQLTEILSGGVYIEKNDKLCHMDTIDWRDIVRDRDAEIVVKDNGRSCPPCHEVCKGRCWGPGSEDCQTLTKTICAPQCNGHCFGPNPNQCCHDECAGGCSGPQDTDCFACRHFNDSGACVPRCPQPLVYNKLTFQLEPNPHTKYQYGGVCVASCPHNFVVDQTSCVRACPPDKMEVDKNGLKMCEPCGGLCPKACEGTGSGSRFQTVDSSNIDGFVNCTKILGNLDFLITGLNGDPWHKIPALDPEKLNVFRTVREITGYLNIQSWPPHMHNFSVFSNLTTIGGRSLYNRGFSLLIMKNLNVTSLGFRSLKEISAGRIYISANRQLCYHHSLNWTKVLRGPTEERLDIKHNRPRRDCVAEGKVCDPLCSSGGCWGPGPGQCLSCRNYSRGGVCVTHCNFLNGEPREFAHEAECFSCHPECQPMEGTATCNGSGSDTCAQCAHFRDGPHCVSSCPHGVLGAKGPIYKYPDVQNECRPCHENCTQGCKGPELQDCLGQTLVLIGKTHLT

T1 sequence (P21860 20-643 limits assumed): as the sequence (P21860 20-643) above

Row | Binder | Kd [1] [nM] | fold increase in affinity against hu1044 [2] | HRG刺激的乳腺癌MCF-7细胞增殖 IC50 (CCK-8) [3] [µg/mL] | IC50 [4] [µg/mL] | fold increase in affinity against hu1044-7 [2]
1 | hu1044Y抗体 (optimised humanized anti-HER3 antibody hu1044Y) (antibody, human IgG1, kappa, V domains shown, hu1044 with heavy chain position 27 changed from Gly to Tyr) VH: QVQLVQSGAEVKKPGSSVKVSCKASGYTFSNYWIDWVKQAPGQGLEWMGEILPGSGGTDYNEKFKGRVTITADTSTSTAYMELSSLRSEDTAVYYCARDDYDVFAYWGQGTLVTVSS VL: DIVMTQSPGTLSLSPGERATLSCRSSKSLLHSNGITYLYWYQQKPGQAPRLLIYQMSNLASGIPDRFSSSGSGTDFTLTISRLEPEDFAVYYCAQNLELPWTFGQGTKVEIKR | 0.232 | ~2 倍 (fold) |  |  | 
2 | hu1044抗体 (humanized anti-HER3 monoclonal antibody hu1044) (antibody, V domains shown) VH: QVQLVQSGAEVKKPGSSVKVSCKASGGTFSNYWIDWVKQAPGQGLEWMGEILPGSGGTDYNEKFKGRVTITADTSTSTAYMELSSLRSEDTAVYYCARDDYDVFAYWGQGTLVTVSS VL: DIVMTQSPGTLSLSPGERATLSCRSSKSLLHSNGITYLYWYQQKPGQAPRLLIYQMSNLASGIPDRFSSSGSGTDFTLTISRLEPEDFAVYYCAQNLELPWTFGQGTKVEIKR | 0.442 |  |  |  | 
3 | hu1044-7抗体 (humanized anti-HER3 antibody variant hu1044-7) (antibody, V domains shown) VH: QVQLVQSGAEVKKPGSSVKVSCKASGGTFSNYWIDWVRQAPGQGLEWMGEILPGSGGTDYNEKFKGKATITADTSTSTAYMELSSLRSEDTAVYYCARDDYDVFAYWGQGTLVTVSS VL: DIVMTQSPGTLSLSPGERATLSCRSSKSLLHSNGITYLYWYQQKPGQAPRLLIYQMSNLASGVPDRFSSSGSGTDFTLTISRLEPEDFAVYYCAQNLELPWTFGQGTKVEIKR | 0.375 |  |  |  | 
4 | hu1044-7Y抗体 (optimised humanized anti-HER3 antibody hu1044-7Y) (antibody, human IgG1, kappa, V domains shown, hu1044-7 with heavy chain position 27 changed from Gly to Tyr; In the flow cytometry assays it was labelled with Dylight 488 NHS ester) VH: QVQLVQSGAEVKKPGSSVKVSCKASGYTFSNYWIDWVRQAPGQGLEWMGEILPGSGGTDYNEKFKGKATITADTSTSTAYMELSSLRSEDTAVYYCARDDYDVFAYWGQGTLVTVSS VL: DIVMTQSPGTLSLSPGERATLSCRSSKSLLHSNGITYLYWYQQKPGQAPRLLIYQMSNLASGVPDRFSSSGSGTDFTLTISRLEPEDFAVYYCAQNLELPWTFGQGTKVEIKR | 0.117 |  | 0.0133 | ~0.1 | ~3 倍 (fold)
